From patent US20160355591A1

Assays:
[1] = target: HLA-DR (L243 antigen) on canine lymphocytes and canine lymphoma cells (dog); assay: flow cytometry, dog lymphoma aspirate; none 3.24; control antibody
[2] = target: HLA-DR (human leukocyte antigen-DR) on human lymphoma and leukemia cells and human lymphocytes (human); assay: indirect FACS, Daudi cells, FITC-GAH Fc 2nd Ab; none 3.1; control antibody
[3] = target: HLA-DR (human leukocyte antigen-DR) on human lymphoma and leukemia cells and human lymphocytes (human); assay: indirect FACS, Raji cells, FITC-GAH Fc 2nd Ab; none 6.8; control antibody
[4] = target: HLA-DR (human leukocyte antigen-DR) on human lymphoma and leukemia cells and human lymphocytes (human); assay: indirect FACS, Ramos cells, FITC-GAH Fc 2nd Ab; none 3.1; control antibody
[5] = target: HLA-DR (human leukocyte antigen-DR) on human lymphoma and leukemia cells and human lymphocytes (human); assay: indirect flow cytometry, Daudi cells, FITC-GAH Fc 2nd Ab; none 3.2; negative control antibody
[6] = target: HLA-DR (L243 antigen) on canine lymphocytes and canine lymphoma cells (dog); assay: flow cytometry, dog lymphoma aspirate; none 4.48; control antibody
[7] = target: HLA-DR (L243 antigen) on canine lymphocytes and canine lymphoma cells (dog); assay: flow cytometry, canine lymphoma aspirate 150836; none 4.5; control antibody
[8] = target: HLA-DR (human leukocyte antigen-DR) on human lymphoma and leukemia cells and human lymphocytes (human); assay: indirect FACS, SU-DHL-6 cells, FITC-GAH Fc 2nd Ab; none 4.6; control antibody
[9] = target: HLA-DR (L243 antigen) on canine lymphocytes and canine lymphoma cells (dog); assay: flow cytometry, canine lymphoma aspirate 150836; none 3.2; control antibody
[10] = target: HLA-DR (human leukocyte antigen-DR) on human lymphoma and leukemia cells and human lymphocytes (human); assay: indirect flow cytometry, Namalwa cells, FITC-GAH 2nd Ab; none 2.52; control antibody (anti-CEA)
[11] = target: HLA-DR (human leukocyte antigen-DR) on human lymphoma and leukemia cells and human lymphocytes (human); assay: indirect flow cytometry, SU-DHL-6 cells, FITC-GAH Fc 2nd Ab; none 4.6; negative control antibody
[12] = target: HLA-DR (human leukocyte antigen-DR) on human lymphoma and leukemia cells and human lymphocytes (human); assay: indirect flow cytometry, RL cells, FITC-GAH Fc 2nd Ab; none 2.4; negative control antibody
[13] = target: HLA-DR (human leukocyte antigen-DR) on human lymphoma and leukemia cells and human lymphocytes (human); assay: indirect flow cytometry, Raji cells, FITC-GAH Fc 2nd Ab; none 6.9; negative control antibody
[14] = target: HLA-DR (human leukocyte antigen-DR) on human lymphoma and leukemia cells and human lymphocytes (human); assay: indirect flow cytometry, Ramos cells, FITC-GAH Fc 2nd Ab; none 3.1; negative control antibody
[15] = target: HLA-DR (human leukocyte antigen-DR) on human lymphoma and leukemia cells and human lymphocytes (human); assay: indirect flow cytometry, Namalwa cells, FITC-GAH Fc 2nd Ab; none 2.6; negative control antibody
[16] = target: HLA-DR (human leukocyte antigen-DR) on human lymphoma and leukemia cells and human lymphocytes (human); assay: indirect FACS, WSU-FSCCL cells, FITC-GAH Fc 2nd Ab; none 2.6; control antibody
[17] = target: HLA-DR (human leukocyte antigen-DR) on human lymphoma and leukemia cells and human lymphocytes (human); assay: indirect flow cytometry, WSU-FSCCL cells, FITC-GAH Fc 2nd Ab; none 2.7; negative control antibody
[18] = target: HLA-DR (human leukocyte antigen-DR) on human lymphoma and leukemia cells and human lymphocytes (human); assay: indirect FACS, Namalwa cells, FITC-GAH Fc 2nd Ab; none 2.5; control antibody

mean FL [1]: 3.24
geometric mean fluorescence [2]: 3.16
geometric mean fluorescence [3]: 6.96
geometric mean fluorescence [4]: 3.13
geometric mean fluorescence [5]: 3.2
% Positive [6]: 4.63%
% Positive [7]: 4.6%
geometric mean fluorescence [8]: 4.94
mean FL [9]: 3.2
geometric mean fluorescence [10]: 2.49
geometric mean fluorescence [11]: 4.9
geometric mean fluorescence [12]: 2.8
geometric mean fluorescence [13]: 7
geometric mean fluorescence [14]: 3.1
geometric mean fluorescence [15]: 2.4
geometric mean fluorescence [16]: 2.66
geometric mean fluorescence [17]: 2.7
geometric mean fluorescence [18]: 2.36
B1: hMN-14 (labetuzumab, humanized anti-carcinoembryonic antigen IgG1) (antibody, INN chains, looked up, V domains shown)
VH: EVQLVESGGGVVQPGRSLRLSCSASGFDFTTYWMSWVRQAPGKGLEWIGEIHPDSSTINYAPSLKDRFTISRDNAKNTLFLQMDSLRPEDTGVYFCASLYFGFPWFAYWGQGTPVTVSS
VL: DIQLTQSPSSLSASVGDRVTITCKASQDVGTSVAWYQQKPGKAPKLLIYWTSTRHTGVPSRFSGSGSGTDFTFTISSLQPEDIATYYCQQYSLYRSFGQGTKVEIKR
